The values that follow come from article PMC2959089, “The intriguing Cyclophilin A-HIV-1 Vpr interaction: prolyl cis/trans isomerisation catalysis and specific binding” (BMC Structural Biology, 2010).

One may read the Kd as a measure of binding affinity in units of concentration.

In this test the target is recombinant human Cyclophilin A (CypA) (human) (UniProt P62937). Description: SPR.
Sequence of recombinant human Cyclophilin A (CypA) (human) (P62937 whole entry): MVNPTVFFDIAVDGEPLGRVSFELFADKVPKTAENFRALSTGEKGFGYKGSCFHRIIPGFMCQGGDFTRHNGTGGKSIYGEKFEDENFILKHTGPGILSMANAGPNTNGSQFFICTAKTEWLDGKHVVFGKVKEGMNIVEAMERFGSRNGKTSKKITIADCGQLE

In the case of synthetic HIV-1 Vpr peptide sVpr^1-40, the Kd amounted to 0.284 mM; the ka1 (two-state model, association) came out at 752 M⁻¹ s⁻¹; the ka2 (two-state model, forward rate) came to 0.0073 s⁻¹; the kd1 (two-state model, dissociation) is 0.37 s⁻¹. In addition, the kd2 (two-state model, backward rate) was 0.0099 s⁻¹.

As to “synthetic mutant HIV-1 Vpr peptide sVpr^1-40 P5,10,14N”, the Kd stood at 6.15 mM; the ka1 (two-state model, association) is 46 M⁻¹ s⁻¹; the ka2 (two-state model, forward rate) stood at 0.0047 s⁻¹; the kd1 (two-state model, dissociation) is 0.56 s⁻¹. In addition, the kd2 (two-state model, backward rate) stood at 0.0048 s⁻¹.
